Laboratory results: the DeepSol protein solubility set

experiment: soluble on expression in E. coli; label from the status in PepcDB or PDB records

| Sequence | soluble on expression in E. coli |
| --- | --- |
| PKALIVYGSTTGNTEYTAETIARELADAGYEVDSRDAASVEAGGLFEGFDLVLLGCSTWNDDSIELQDDFIPLFDSLEETGAQGRKVACFGCGDSSYEYFCGAVDAIEEKLKNLGAEIVQDGLRIDGDPRAARDDIVGWAHDVRGAI | soluble |
| MLEEQLYLLACIFASRADTRNIKKLSTRLGSQSKYLEILCVLWPELDDPKNLLFLRELEEEVQSPEGEETTDEDVIVELLESDSSLIPLIESDTTTRSNRYHELQEFISKKLNNKTLENFEEWLRERILICNEMIPETPLLYSVLWETAKSKVLSTKFIGWVEGVLKPLDHLNKRLHLIFKINEWEKMPDSELFKIIFDGVEDMQGYIGIADVIEDELAPTLSYGKKWETFITEFFNKQQFSLKSDTNYQLFIKLYYSLEKGVKDNSEASRKLQSNVVDILFHNSENLFNLSSLTHKLDELWSILSGFPDEITIEEQKTITALEMKQFMEFFIKCSTKFSFKEIFAITQEEESAQLAHFSSLCHEEFNKANEISSFLQAMYETVLDISKDDKIFTRISMDEKLYSILEILLQMNEFAYIEAIIERFDYSNNTQIYELLVKFFWHFFNNASNGLRKEPEMKKASQTLQIIQKHMSQRAGTNLTKLEVLLEISDKLSHYSINLNKSHNGARDTAFKPSNILEYRDCPLDIISNLLELNPRLYKDLPTTKSLLFGIYDSLSINREGQTGKVEVDLMVLHIDYALVNLDFGTAYELGKQVFEICQEAGQHMMKALGDEHWLTFYQMGKFVDPNWVDNEIPTEIIVLQMSILGRLLEVCPLEEVEIVTSQWSTLELELSARDLVKDKYALDGQNDNKSKVGGIAREIFHNVTNF | soluble |
| SETESDAEVACDLSNMEITEELRQYFAETERHREELLRRQQLDAERLNSYVNAEHDLYCNTRRSVEAPAERPGERRQAEMKRLYWDSAAKIQAMEANVQLSFDKHCDPKQPNYWPVIPPKF | soluble |
| MSLDIKVQKTEDLIPYEKNPRHNEGAITAVAKSIEKFGFKVPIVVDASNVIVNGHTRLKAAKYLGLKEVPTIIADDLTPEQIKAFRLADNKVGEIATWDEELLNAELDELADLDLDFDMTEFGFDLPDIEGEEVEVIEDEFEEELPAEPISKLGDIYQLGRHRLMCGDSTNSLEVEKLMGNKKADLLITDPPYNVAYEGKGKEALTIKNDSKETNEFHSFLYEAFSAAINNMKLGSSFYVWYASSEVVNFHTALEEAGFLVKQELIWNKNSMVLSRQDYHWKHEPCLYGWASGGSHSWYSDRKQTTILNFDRPTVNKEHPTMKPVALFDYQIKNSSKQGDCILDLFGGSGTTLIACEQNEREAYLMELDPRYVDVIIARWEAFTGEVAVKISGNDTAVVDGEGHHHHHH | soluble |
| MVGPARPQIVLFGSSIVQMSFGHGGWGAILSEVYARKADIILRGYYGWNSSRALEVVDQVFPKDAAVQPSLVIVYFGGNDSMAPHSSGLGPHVPLTEYVDNMKKIALHLQSLSDFTRIIFLSSPPVDEAKVRQNQSPYLSEVIRTNDLCKTYSDACVELCQELGLEVVDLFSTFQKADDWKTVCFTDGIHLSAQGSKIVAGEILRVVKEAEWHPSLHWKSMPTEFADDSPYDLVSADGKQTVNSSEWTYFWEEQWD | soluble |
| MSMLKIGDIVTRKSHGQDIYFIVTDIQNKDSSKPVYILRGLFYRIIVDAFEDDLVKKDSRSTRINLRRDLTMARSNAYRQIFTSRCFLFSKPRQRPGKVLHIDSSESFLKMCRNLYKEAGITSREYLAPESEQPNIIKRALAETKPDILVVTGHDSLKKGSDPNLLDSYRNSKYFIECVKEARKYQPDYDKLCIFAGACQSYFEAIMQAGANFASSPGRININALDPAIVSEKVALTNKDNYVTPEEVSKLTISGSKGIGGIKTRGHLTVL | soluble |
| MWPLALVIASLTLALSGGVSQESSKVLNTNGTSGFLPGGYTCFPHSQPWQAALLVQGRLLCGGVLVHPKWVLTAAHCLKEGLKVYLGKHALGRVEAGEQVREVVHSIPHPEYRRSPTHLNHDHDIMLLELQSPVQLTGYIQTLPLSHNNRLTPGTTCRVSGWGTTTSPQVNYPKTLQCANIQLRSDEECRQVYPGKITDNMLCAGTKEGGKDSCEGDSGGPLVCNRTLYGIVSWGDFPCGQPDRPGVYTRVSRYVLWIRETIRKYETQQQKWLKGPQ | soluble |
| MTKPRYNDVLFDDDDSVPSESVTRKSQRRKATSPGESRESSKDRLLILPSMGESYTEYVDSYLNLELLERGERETPIFLESLTRQLTQKIYELIKTKSLTADTLQQISDKYDGVVAENKLLFLQRQYYVDDEGNVRDGRNNDKIYCEPKHVYDMVMATHLMNKHLRGKTLHSFLFSHFANISHAIIDWVQQFCSKCNKKGKIKPLKEYKR | not soluble |
| MGSDKIHHHHHHMSTDKLAIIAVTERGRDLAITLTKTVAATIFVPEKHCTEQTNSLTPDFGTAMREIFTKYQALICIMATGIAVRTLAPVIEDKLSDPAVLVMDEHGKFIISLLSGHVGGANELTERIATITGGAAVITTATDRANVAAIDNIAKQLNGYLPDFKATTKRINGLLAAGKEVGLYIDEPLEIDTRGFTMEEVSPQVYISTKYKLQVATHERIQLVPKQFILGVGCRKGVSAETIDAAFTHFCEQENIHPRAFREIHSITLKAEEPAILHLAEKWHVPFIVHPAEELQTVAGKYPTSAFVQKTVQVGNVALSSADIGSNGNVVTSRFAENGVTFAAGKLTKNSEVAK | not soluble |
| MRFITETELRDLYKAEPFTAYTLEPRTKLTPEARQFLVDRGIKLAEAQDCKSKSTGNGKSGTEQESWNVLRLRRRMESLESLFLMVGANLLSGGSTVLAEEVFALGRCFSEVKKTAWEQTSPVNLQFQDWSEAEMKNCSTYLGKHFDITEFHVRTENGAAIASLNHLRATLRELESAVLEAYWDEEFNVCSRQDLIEKINLIMNILCVMIWKCLGGQQCKT | not soluble |
| APGAGPGVRRRQRSLEEIPRLGQLRFFFQLFVQGYALQLHQLQVLYKAKYGPMWMSYLGPQMHVNLASAPLLEQVMRQEGKYPVRNDMELWKEHRDQHDLTYGPFTTEGHHWYQLRQALNQRLLKPAEAALYTDAFNEVIDDFMTRLDQLRAESASGNQVSDMAQLFYYFALEAICYILFEKRIGCLQRSIPEDTVTFVRSIGLMFQNSLYATFLPKWTRPVLPFWKRYLDGWNAIFSFGKKLIDEKLEDMEAQLQAAGPDGIQVSGYLHFLLASGQLSPREAMGSLPELLMAGVDTTSNTLTWALYHLSKDPEIQEALHEEVVGVVPAGQVPQHKDFAHMPLLKAVLKETLRLYPVVPTNSRIIEKEIEVDGFLFPKNTQFVFCHYVVSRDPTAFSEPESFQPHRWLRNSQPATPRIQHPFGSVPFGYGVRACLGRRIAELEMQLLLARLIQKYKVVLAPETGELKSVARIVLVPNKKVGLQFLQRQC | not soluble |
| MTESFAQLFEEFLNETQFQQGTIVKGTVVAIENGYVLVDAGLKSESAIPAEQFKNAAGELEVQVGSQVDVALDAVEDGFGETQLSREKAKRHEAWIVLEKAYEEAATVIGIINGKVKGGFTVELNGIRAFLPGSLVDVRPIRDTAHLENKELEFKVIKLDQKRNNVVVSRRAVIESESSVERDELLETLQEGTEVKGIVKNLTDYGAFVDLGGVDGLLHITDMAWKRVKHPSEIVNVGDEILVKVLKFDRDRTRVSLGLKQLGEDPWVAIAKRYPEGHKLSGRVTNLTDYGCFVEIEEGVEGLVHVSEMDWTNKNIHPSKVVNVGDEVEVMVLDIDEERRRISLGLKQCKANPWQSFAEAQAKGDKVTGKIKSITDFGIFIGLEGGIDGLVHLSDISWNVPGEEAVREFKKGDEISAVVLAVDAERERISLGIKQMENDPFNAYVSDNKKGALVNGTVTAVDAKGATIELEDGVEGYIRASEVSRDRIEDASLILNVGDKVEAKFTGVDRKNRVINLSIKAKDEAEEQEVMATLNKQDEAAFGNAMADAFKAAKGELEHHHHHH | not soluble |
| MNLTNYHSHTLYCDGRAGMEDFIRFAISRGFTSYGISSHAPLPFPTHWTMEWDRMDDYLDEFTRMKEKYASEIELAVGLEIDYLNEDSNPSVRRFQELPLDYRIGSVHLLYNDRDEVVDIDVCAEVFRDIVDQHFGGDLDRVIHLYYDRLLRMVELGGFDILGHADKMHHNAACYRPGLLDESWYDALIHDYFSAVAAKGYIVEINTKALHHLNTFFPNERYFPLLKELGVRVQVNSDSHYPERINSGRPEALAALQKAGFETVTEWHGGKWIEMPLLEHHHHHH | soluble |
| MNWRAASAPPRSSPGLTSTCSRAAHWRDRGGAAAHAVLANVPQGRTLRDDAADLGWKPNHKFKGKLILTAPDAMPVDLNGVTITIAGPLQDELQALQDMHDQWLRQRKADPTRPPASAMLAAFVDKSVPNLSSIVLLAECGGKTMLLTGDARGDKIIEGLETTGKLAKDETLHVDILKVPHHGSDNNMETSFFERVTADHYVFSGNGDYGNPERATLQMLLDARGVAEDFTIHLTYPIEEIDAGREADWVKQQAKEAGRAKPPKGGVRPDWSAEEQGLVAFFANNPELAAHLIDLLDKAVVLEHHHHHH | not soluble |
| MFLRYMRRRGSGEDHEEEPRGVTVIATKVAENSKNPRRYSLVHQASCETQHHKGIRRQNTIQHRKQLTDQMRCQKILQQLNDEGIEVIFTANDVTPIEFSIILTSTDPTLSNFVSDILQNMSSAKVQICHVETRGNEASHDVLLACKATKNQLIHSAELLTQNHVALTKFSIFAKKLSDEKNQSQIWFPRHISELDQCSKCITKYEPTTDPRHPGHGDVAYIARRKFLNDQALEFKFGDEIGYVDYTEEEHATWKAVYEKLGDLHLSHTCAVYRQNLKILQEEKVLTADRIPQIRDVNKFLQKKTGFELRPCSGLLSARDFLASLAFRVFQTTTYLRHHKSPHHSPEPDLIHELLGHVPMFSDPLLAQMSQDIGLMSLGASDEHIEKLSTVYWFIVEFGLCKEDGKLKAIGAGLLSAYGELMHACSDAPEHKDFDPAVTAVQKYEDDDYQPLYFVADSIHDALAKLRKYASSMDRPFSVVYDPFTKSIEAIESSADLEKAFSRLSNDLSAITHAADRMKISITM | not soluble |
| MGSDKIHHHHHHVDWNWNGDIRFRYDSSKTELASSPDKPADDRYRLRARFGVSPTINDELSAGLRLATGDGKNPTSTNQTLGKDFADKAIWLDEAYINYHPKALEGKVNVLLGKRDIAKTFNVVKDLVWDSDVTIEGATLQYGKDVSGKQKSGPSLIAGYYTLENYATASDPCIFAVQGAYMGTVSGADFNLGASYFDYVHMKNVAWWNSPNGPANDGKDFRILEVFGTLGGKLGGSLPATLYAQYAHNTALNSDNNAVLAGLKLGSDKKPGGWTLDGGYFYIEKYAVTPLTDGDRPMSSKYSTDIKGLKIGATYQLVQNMTLGATYFHVNPVDSSLTGSTSDHKNLVQADVAVNF | not soluble |
| LSLLGVGAASLYVSDSPQPKMAQSQHDTTIDLSSQKDFFEYSLSGLGEHSLEEIQENIEESISQQNSLGIDVELFQTYLAYKRALSKLEPLEDTTLSLSQLQRLNEAILNLQLEYFNDQQISQLFDEENRLRQLAIEKLVIKTYEQDSDSQQLLLNQALSEQPEYIQKSERNNALTRQLDQTELLSSQDKYLARVELVGEEGAQRLQKLDEQRATFEIELTNYLEKRADILNDEFLDSEQKQLEIANLRKQSFETTQWRRIEALERIHDS | not soluble |
| MGSDKIHHHHHHMLDLKSYREKELASYDLDVELFNEFNFSVYNVMPLRKAFLISTDKGEKILKKIDYTIEEFKFVLAAVNYIKNENEFNRIIDFNKTQSGEYYCIKNGDLYCVMDMIEGKECEFSNPVDLSISSFGLGQLHSASEGFRYSKIASKNICGKMIKGFKRKKEEVNFLKKMVNLYESLNEFDEIFIKNVDYYLEQIDKSIDIMNKSQYYKLCSEEDKIVLCHHDLAHHNIIIKDEEAYFIDFDYAIIDLKVHDLSNIISKAAKVFNYSIDNSKIIISNYCKSNTLSKNEMEVLFGMLSFPEDFYEIVKSYYTKRKDWSNEEFINKMKRKMANEENRVEFLKNFKEDLKI | not soluble |
| MTEQERLELEAAAFRRLVAHLDSRKDVQNIDLMNLSGFCRNCLSKWYKAAADEKHIDITLDDAREVVYGMPYSEWKANYQKEASAEQQAAFVKESKHD | soluble |
